Source: article PMC4657161 (The Journal of Cell Biology, 2015)

Target: T1, Rab40A (on the HuProt array) (human, UniProt Q8WXH6 1-277)
T1 sequence: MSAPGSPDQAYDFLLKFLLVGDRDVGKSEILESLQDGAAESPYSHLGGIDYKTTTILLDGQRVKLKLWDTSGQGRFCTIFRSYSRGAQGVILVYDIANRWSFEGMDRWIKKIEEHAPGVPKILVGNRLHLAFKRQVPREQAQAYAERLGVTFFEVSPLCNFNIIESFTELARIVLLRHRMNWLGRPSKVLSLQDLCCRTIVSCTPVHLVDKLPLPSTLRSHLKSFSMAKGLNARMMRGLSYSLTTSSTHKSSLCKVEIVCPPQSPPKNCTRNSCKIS
Experiment: peptide or protein array

B1: HIS-RhoU (natural protein)
chain: not shown
Question: Does B1 bind?
Answer: binds
